Where a chain is given by its changes, count along the chain named. Names may count otherwise.
B1: anti-DR3 monoclonal antibody 142A2 Fab fragment (Fab, V domains shown)
VH: QVQLQQSGPGLVKPSQTLSLTCAISGDSVSGYSAAWNWIRQSPSRGLEWLGRTYYRSKWYNDYAVSVKSRITINPDTSKNQFSLQLNSVTPEDTAVYYCARDYYGSESYYNGGYYYYGMDVWGQGTTVTVSS
VL: AIQLTQSPSSLSASVGDRVTITCRASPGISSALAWYQQKPGKAPKLLMYDASSLESGVPSRFSGSGSGTDFTLTISSLQPEDFATYYCQQFNDYPLTFGGGTKVEIK
notes: Fab made with the Pierce Fab Preparation Kit from antibody 142A2; also called parental 142A2
B2: 142A2-G112R Fab (Fab, V domains shown)
VH: B1 VH with G112R
VL: B1 VL
notes: Only the variable domains are written
B3: 142A2-G112R/A51E Fab (Fab, V domains shown)
VH: B1 VH with G112R
VL: B1 VL with A51E
notes: Only the variable domains are written; also called A2-ER
B4: 142A2-A51E Fab (Fab, V domains shown)
VH: B1 VH
VL: B1 VL with A51E
notes: Only the variable domains are written; also called A2-E
B5: 142A2-G112R/L54Q Fab (Fab, V domains shown)
VH: B1 VH with G112R
VL: B1 VL with L54Q
notes: as for B2
B6: 142A2-A51E/L54Q Fab (Fab, V domains shown)
VH: B1 VH
VL: B1 VL with A51E, L54Q
notes: Only the variable domains are written; also called A2-EQ
B7: 142A2-L54Q Fab (Fab, V domains shown)
VH: B1 VH
VL: B1 VL with L54Q
notes: Only the variable domains are written; also called A2-Q
B8: 142A2-G112R/A51E/L54Q Fab (Fab, V domains shown)
VH: B1 VH with G112R
VL: B1 VL with A51E, L54Q
notes: Only the variable domains are written; also called A2-EQR; 142A2-EQR
B9: anti-DR3 monoclonal antibody 142S38B Fab fragment (Fab, V domains shown)
VH: EVQLLESGGGLVQPGGSLRLSCAASGFTVSRYAMSWVRQAPGKGLEWVSAISDSGGRTYYADSVMGRFTISRDTSKNTLYLQMNSLRAEDTAVYFCAKEFGDYLDYWGQGTLVTVSS
VL: EIVLTQSPATLSLSPGERATLSCRASQSVSSYLAWYQQKPGQAPRLLIYDASNRATGIPARFSGSGSGTDFTLTISSLEPEDFAVYYCQQRSNWWTFGQGTKVEIK
notes: Fab made with the Pierce Fab Preparation Kit from antibody 142S38B; Human kappa light chain; Only the variable domains are written
B10: anti-DR3 monoclonal antibody 142S38B (hybridoma supernatant) (antibody, V domains shown)
VH: B9 VH
VL: B9 VL
notes: Human antibody from a KM mouse hybridoma, detected with anti-human IgG-PE; Kappa light chain

Legend:
[1] = target: T1, recombinant human DR3-human IgG1-Fc (soluble human DR3(EC)-hG1Fc) (human); assay: SPR (Biacore 3000), huDR3-huFc on CM5, Fab as analyte; average KD, n = 2
T1 construct: also called huDR3-huFc; hDR3(EC)-hG1Fc
Procedure: (§1) Fab antibody fragments of the above mentioned antibodies were obtained following the Pierce Fab Preparation Kit (Thermo Scientific Pierce No. 44985). All of the following manipulations were carried out using a Biacore® 3000 (manufactured by GE Healthcare Bio-Sciences). Recombinant huDR3-huFc protein was immobilized on a CM5 sensor chip (manufactured by GE Healthcare Bio-Sciences) by an amine coupling chemistry.
(§2) In particular, the kinetic assay was carried out by immobilizing on the chip approximately 2000 resonance unit (RU) of recombinant protein, in order to achieve a medium protein immobilization level. Thereafter, the anti-DR3 antibody Fab fragments, diluted from 12 nM concentration in five steps, were allowed to run at a flow rate of 30 μL/min onto the chip for 120 seconds. The dissociation time was 300 seconds and the binding curves were measured at 25° C.
(§3) Regeneration was performed with glycine-HCl, pH 1.5, 60 seconds. The raw data were double referenced by subtraction of the signals from a reference flow cell without captured ligand and a buffer blank. The sensorgram corresponding to each concentration was obtained. […]

[2] = target: T1, recombinant human DR3-human IgG1-Fc …; assay: SPR (Biacore 3000), huDR3-huFc amine-coupled on CM5, Fab 12 to 0.375 nM, 1:1 Langmuir fit, 25 C; run 2
Procedure: as §1, §2
(§4) Regeneration was performed with glycine-HCl, pH 1.5, 60 seconds. The raw data were double referenced by subtraction of the signals from a reference flow cell without captured ligand and a buffer blank. The sensorgram corresponding to each concentration was obtained. The analysis was carried out using a 1:1 Langmuir fit model, using the analysis software attached to the apparatus, Biacore® 3000 Evaluation software (manufactured by Biacore), thereby calculating an association rate constant ka [1/Ms] and a dissociation rate constant kd [1/s] for the recombinant huDR3-huFc protein.

[3] = target: T1, recombinant human DR3-human IgG1-Fc …; assay: SPR (Biacore 3000), huDR3-huFc amine-coupled on CM5, Fab 12 to 0.375 nM, 1:1 Langmuir fit, 25 C; run 1
Procedure: as §1, §2, §4

[4] = target: T1, recombinant human DR3-human IgG1-Fc …; assay: SPR, Fab on immobilised DR3-Fc, same as Example 5; n = 6
Procedure: as §1, §2, §4

[5] = target: T1, recombinant human DR3-human IgG1-Fc …; assay: SPR, Fab on immobilised DR3-Fc, same as Example 5; n = 3
Procedure: as §1, §2, §4

[6] = target: T1, recombinant human DR3-human IgG1-Fc …; assay: SPR, Fab on immobilised DR3-Fc
Procedure: as §1, §2, §4
Target sequence in this assay (chain, as listed by the source limits assumed): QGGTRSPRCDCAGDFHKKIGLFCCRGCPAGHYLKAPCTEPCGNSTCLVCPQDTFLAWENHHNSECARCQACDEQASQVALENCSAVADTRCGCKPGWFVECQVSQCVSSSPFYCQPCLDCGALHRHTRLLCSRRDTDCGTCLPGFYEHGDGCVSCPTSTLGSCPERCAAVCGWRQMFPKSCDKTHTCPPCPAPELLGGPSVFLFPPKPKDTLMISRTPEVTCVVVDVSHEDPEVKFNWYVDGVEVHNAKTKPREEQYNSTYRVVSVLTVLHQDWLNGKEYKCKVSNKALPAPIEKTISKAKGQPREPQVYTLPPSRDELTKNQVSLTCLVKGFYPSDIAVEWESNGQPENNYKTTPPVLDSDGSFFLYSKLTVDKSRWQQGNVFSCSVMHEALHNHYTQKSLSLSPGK

[7] = target: T1, recombinant human DR3-human IgG1-Fc …; assay: SPR, Fab on immobilised DR3-Fc, same as Example 5; n = 23
Procedure: as §1, §2, §3

[8] = target: T2, death domain-deleted human DR3 (hDR3ΔDD) on CHO-K1 cells (human, UniProt Q93038 25-345); assay: flow cytometry of hybridoma supernatant on human DR3-expressing CHO cells, anti-human IgG-PE
T2 construct: also called CHO/DR3; human DR3-expressing CHO cells
T2 sequence: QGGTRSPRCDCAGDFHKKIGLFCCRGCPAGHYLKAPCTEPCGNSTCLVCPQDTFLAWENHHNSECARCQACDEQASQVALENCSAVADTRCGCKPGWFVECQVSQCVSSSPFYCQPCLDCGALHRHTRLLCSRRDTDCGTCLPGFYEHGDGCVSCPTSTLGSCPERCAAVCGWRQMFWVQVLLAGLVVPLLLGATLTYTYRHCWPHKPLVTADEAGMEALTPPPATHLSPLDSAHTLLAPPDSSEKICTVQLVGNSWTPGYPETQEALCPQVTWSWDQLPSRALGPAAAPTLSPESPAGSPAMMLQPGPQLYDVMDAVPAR
Procedure: Supernatants of multiwell plates were screened by flow cytometric binding to human DR3-expressing CHO cells (hereinafter described as CHO/DR3, in case). Cells were incubated at 10,000/well in a 96-well round-bottom assay plate for 15 minutes at 4° C. with a neat supernatant of hybridoma. Cells were pelleted via centrifugation, and washed with 200 μL PBS/0.5% fetal calf serum. […] Cells were washed as described above, and resuspended in 200 μL PBS/0.5% fetal calf serum; >5000 events acquired on an LSR Fortessa flow cytometer (Beckton Dickinson). Results were analyzed using FlowJo (Treestar Inc.).

Row | Binder | Kd [4] | Kd [5] | fold increase of binding affinity against parental 142A2 [6] | further results
1 | B1 | 3.99 nM |  |  | Kd [1]: 2.65 nM; Kd [2]: 1.5 nM; Kd [3]: 3.79 nM
2 | B2 |  | 3.19 nM |  | 
3 | B3 | 1.96 nM |  | ~2 fold | 
4 | B4 | 2.2 nM |  | ~1.8 fold | 
5 | B5 |  | 2.37 nM |  | 
6 | B6 |  |  | ~1.9 fold | Kd [7]: 2.13 nM
7 | B7 |  | 3.04 nM | ~1.2 fold | 
8 | B8 |  | 1.78 nM | ~2.2 fold | 
9 | B9 |  | 0.13 nM |  | Kd [1]: 0.194 nM; Kd [2]: 0.162 nM; koff [2]: 5.46e-05 s⁻¹; kon [2]: 337000 M⁻¹ s⁻¹; Kd [3]: 0.225 nM; koff [3]: 5.37e-05 s⁻¹; kon [3]: 239000 M⁻¹ s⁻¹
10 | B10 |  |  |  | binding result [8]: binds
